In the experiment the target is ANAPC2CW fragment (mouse ANAPC2 cullin-Winged-helix subdomain; residues 512–837) (mouse, UniProt Q8BZQ7 512-837). Briefly: NMR titration.
ANAPC2CW fragment (mouse ANAPC2 cullin-Winged-helix subdomain; residues 512–837), sequence (Q8BZQ7 512-837): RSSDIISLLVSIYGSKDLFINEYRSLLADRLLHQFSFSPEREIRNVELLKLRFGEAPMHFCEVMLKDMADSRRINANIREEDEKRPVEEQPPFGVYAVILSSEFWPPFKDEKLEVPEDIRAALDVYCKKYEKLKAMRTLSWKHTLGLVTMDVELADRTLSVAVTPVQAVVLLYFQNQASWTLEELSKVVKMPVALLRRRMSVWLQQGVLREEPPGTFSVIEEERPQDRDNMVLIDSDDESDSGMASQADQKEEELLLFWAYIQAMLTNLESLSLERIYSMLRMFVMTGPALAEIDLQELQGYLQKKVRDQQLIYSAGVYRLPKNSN

B1: Emi2 ZBR–RL fragment (mouse Emi2; residues 547–641), 13C- and 15N-labeled (domain or fragment, UniProt Q8CDI2 546-640, looked up)
chain: LTHLRSKQEQYVKVARTLFTDEALKPCPRCQSPAKYQPHKKRGLCSRLACGFDFCVLCLCAYHGSEDCRRGSAKARGSKDVLPGSAQSKRNLKRL
modifications: [15N, 13C]-labeled
For the molecule B1, the binding result is “binds”.

Source of the values: paper PMC4141206 (FEBS Open Bio, 2014).
